Experiment in all cases: SEC; protein alone, prior to DNA binding; Superdex 200, 20 mM Tris pH 7.5, 0.2 M NaCl, 5 mM DTT, 4 °C, 50 μL/min; peaks assigned to monomer and dimer by elution times
On the technique in general: In gel filtration, larger molecules generally elute earlier.

Experiment [1] concerns the target S1-Tgf2TPase (truncated Tgf2 transposase, 110-686 aa) (goldfish (Carassius auratus)).
Experiment [2] has as its target L-Tgf2TPase(D228N, E648Q) (goldfish (Carassius auratus)).
Experiment [3] concerns the target S2-Tgf2TPase (truncated Tgf2 transposase, 124-686 aa) (goldfish (Carassius auratus)).
The target of experiment [4] is full length Tgf2 transposase (L-Tgf2TPase) (goldfish (Carassius auratus)).

On to “S1-Tgf2TPase (truncated Tgf2 transposase, 110-686 aa) (domain or fragment)”, for which, in experiment [1], the stoichiometry N (as a rule, a count of units in the complex or per binding partner) stood at 2.

In experiment [2], L-Tgf2TPase(D228N, E648Q) (enzyme) had a stoichiometry N of 2.

In turn, “S2-Tgf2TPase (truncated Tgf2 transposase, 124-686 aa) (domain or fragment)” displayed a stoichiometry N in experiment [3] of 2.

“full length Tgf2 transposase (L-Tgf2TPase) (enzyme)” displayed a stoichiometry N in experiment [4] of 2.

The values are drawn from article PMC4890040.
